Assay results: patent US20160333096A1 (published 2016)

Assays:
canine PD-1 antigen [1] = molecular target: T1, canine PD-1 antigen (canine); assay: SPR (Biacore T200), canine PD-1 amine-coupled to chip, antibody as analyte, 1:1 fit; off-rate below detection limit
T1 construct: also called cPD-1; canine Programmed Death Receptor 1
T1 chain: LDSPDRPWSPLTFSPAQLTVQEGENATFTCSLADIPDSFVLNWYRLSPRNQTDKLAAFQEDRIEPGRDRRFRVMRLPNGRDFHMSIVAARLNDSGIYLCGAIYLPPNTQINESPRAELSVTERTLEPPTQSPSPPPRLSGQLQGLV
Source text: (§1) Approximately 70 resonance units (RU) of the canine PD-1 antigen was immobilized directly by amine coupling. Affinity measurements were made via label-free surface plasmon resonance based technology (e.g., Biacore® T200) with an association time of 300 seconds, a dissociation time of 1200 seconds, and at concentrations of 50, 100, 200 (×2) 400, and 800 nanomolar (nM). A fitting model of 1:1 binding was used. […] Moreover, the mouse anti-canine PD-1 monoclonal antibody and the corresponding caninized mouse anti-canine PD-1 monoclonal antibody from the same clone yielded strikingly similar Kd values (see Table 5 below).

canine PD-1 antigen [2] = molecular target: T1, canine PD-1 antigen; assay: SPR (Biacore T200), canine PD-1 amine-coupled to chip, antibody as analyte, 1:1 fit
Source text: as §1

B1: Murine 2H9 (antibody, V domains shown)
VH: EVQLQQSVAELVRPGASVKLSCTASGFNIKNTYMHWIKQRPEQGLEWIGRIAPANVDTKYAPKFQGKATITADTSSNTAYMQLSTLTSEDTAIYYCVLIYYDYDGDIDVWGTGTTVTVSS
VL: DIQMNQSPSSLSASLGDTITITCHASQNINVWLSWYQQRPGNIPKLLIYKASHLHTGVPSRFSGSGSGTGFTLTISSLQPEDIATYYCQQGQSWPLTFGAGTKLELK
notes: also called mAb 2H9
**Q.** What does the source list for B1?
**A.** Kd (canine PD-1 antigen [1]): ≤ 0.2 nM; koff (canine PD-1 antigen [1]): ≤ 5e-06 s⁻¹; kon (canine PD-1 antigen [2]): 23000 M⁻¹ s⁻¹

B2: Murine 3B6 (antibody, V domains shown)
VH: QIQLVQSGPELKKPGETVKISCKASGYTFTTYGMSWVKQAPGKGLKWMGWINIYSGIPTYADDFKGRFAFSLETSASTAYLQIDNLKNEDTATYFCARFDGPDYWGQGTTLTVSS
VL: DIVMTQSPSSLAVSVGRKVTMSCKSSQSLLNSVNQKNYLAWYQQKPGQSPKVLVYFASARVSGVPDRFIGSGSGTDFTLAISSVQAEDLTTYFCQQYFSTPLTFGAGTKLELK
notes: Mouse monoclonal IgG from hybridoma; also called mAb 3B6
**Q.** What does the source list for B2?
**A.** Kd (canine PD-1 antigen [2]): 2 nM; koff (canine PD-1 antigen [2]): 3.4e-05 s⁻¹; kon (canine PD-1 antigen [2]): 18000 M⁻¹ s⁻¹
